In patent US20220017589A1 (BEIJING QL BIOPHARMACEUTICAL, published 2022):
Numbering of substitutions follows the chain as printed. One block for each binder: values may come before it.

Legend:
Test in all cases: cell-based or functional assay
[1] = target: human GLP-1 receptor (human, UniProt P43220 24-463)
[2] = target: T1, human GFRAL (human, UniProt Q6UXV0 19-394)
T1 sequence (looked up): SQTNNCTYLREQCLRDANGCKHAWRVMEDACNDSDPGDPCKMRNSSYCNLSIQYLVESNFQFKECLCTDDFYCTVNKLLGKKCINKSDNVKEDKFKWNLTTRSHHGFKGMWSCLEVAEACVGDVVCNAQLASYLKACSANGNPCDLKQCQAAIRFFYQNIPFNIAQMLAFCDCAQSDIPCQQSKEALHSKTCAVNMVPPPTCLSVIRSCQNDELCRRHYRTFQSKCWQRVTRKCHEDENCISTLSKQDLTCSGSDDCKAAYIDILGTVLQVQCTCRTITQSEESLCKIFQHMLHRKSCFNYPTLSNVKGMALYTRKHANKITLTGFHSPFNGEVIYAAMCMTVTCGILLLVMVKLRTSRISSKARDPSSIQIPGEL

[3] = target: T1, human GFRAL; remark: listed apart in the source

GLP-1 activity (EC50, pM) [1]: 1.1 pM
GDF15 activity (EC50, pM) [2]: 32.4 pM
B2: MLC086 (ligand)
chain: HGEGTFTSDVSSYLEEQAAKEFIAWLVRGGGGQEPGAQPGQEPGAQPGQEPGAQPGQEPGAQPGQEPCQAPGQEPGAQPGAQPGAQPGAQPGAQPGAQPGAQPGAQPGAQPARQGDHCPLGPGRCCRLHTVRASLEDLGWADWVLSPREVQVTMCIGACPSQFRAANLHAQIKTSLHRLKPDTVPAPCCVPASYNPMVLIQKTDTGVSLQTYDDLLAKDCHCI
modifications: Moiety C (HOOC-(CH2)20-CO-gGlu-2XADO-EDA-CO-CH2) on 37C of Linker (68C of fusion polypeptide)

GLP-1 activity (EC50, pM) [1]: 1.6 pM
GDF15 activity (EC50, pM) [2]: 86.8 pM
B5: MLC080 (ligand)
chain: B2 chain with E66C, C68G, Q69A, A70Q, A81Q, Q82E
modifications: Moiety B (HOOC-(CH2)16-CO-gGlu-2XADO-EDA-CO-CH2) on 35C of Linker (66C of fusion polypeptide)

GLP-1 activity (EC50, pM) [1]: 1.3 pM
GDF15 activity (EC50, pM) [2]: 70.5 pM
B7: MLC084 (ligand)
chain: B2 chain with C68G, A70C
modifications: Moiety C (HOOC-(CH2)20-CO-gGlu-2XADO-EDA-CO-CH2) on 39C of Linker (70C of fusion polypeptide)

GLP-1 activity (EC50, pM) [1]: 0.89 pM
GDF15 activity (EC50, pM) [2]: 79.2 pM
B10: MLC103 (ligand)
chain: B2 chain with K20R, C68G, Q69A, A70Q, Q102K, K180R, K202R, K218R
modifications: Moiety A (HOOC-(CH2)16-CO-gGlu-2XADO) on 71K of Linker (102K of fusion polypeptide)

GLP-1 activity (EC50, pM) [1]: 1.2 pM
GDF15 activity (EC50, pM) [2]: 69.8 pM
B11: MLC081 (ligand)
chain: B2 chain with E66C, C68G, Q69A, A70Q, A81Q, Q82E
modifications: Moiety C (HOOC-(CH2)20-CO-gGlu-2XADO-EDA-CO-CH2) on 35C of Linker (66C of fusion polypeptide)

GLP-1 activity (EC50, pM) [1]: 1.7 pM
GDF15 activity (EC50, pM) [2]: 52.4 pM
B12: MLC083 (ligand)
chain: B2 chain with C68G, A70C
modifications: Moiety B (HOOC-(CH2)16-CO-gGlu-2XADO-EDA-CO-CH2) on 39C of Linker (70C of fusion polypeptide)

GLP-1 activity (EC50, pM) [1]: 1.5 pM
GDF15 activity (EC50, pM) [2]: 22 pM
B13: MLC085 (ligand)
chain: B2 chain
modifications: Moiety B (HOOC-(CH2)16-CO-gGlu-2XADO-EDA-CO-CH2) on 37C of Linker (68C of fusion polypeptide)

GDF15 activity (EC50, pM) [2]: 8.1 pM
GDF15 activity (EC50, pM, 1% HSA) [3]: 11.3 pM
B15: Native GDF15 (ligand)
chain: ARNGDHCPLGPGRCCRLHTVRASLEDLGWADWVLSPREVQVTMCIGACPSQFRAANMHAQIKTSLHRLKPDTVPAPCCVPASYNPMVLIQKTDTGVSLQTYDDLLAKDCHCI

The next lines start with the binder.

B1: MLC075 (ligand)
chain: B2 chain with C68G, Q69A, A70Q, G72C
modifications: Moiety C (HOOC-(CH2)20-CO-gGlu-2XADO-EDA-CO-CH2) on 41C of Linker (72C of fusion polypeptide)
GLP-1 activity (EC50, pM) [1]: 1.3 pM
GDF15 activity (EC50, pM) [2]: 48.6 pM

B3: MLC046 (ligand)
chain: B2 chain with K20R, C68G, Q69A, A70Q, P91K, K180R, K202R, K218R
modifications: Moiety A (HOOC-(CH2)16-CO-gGlu-2XADO) on 60K of linker (91K of fusion polypeptide)
GLP-1 activity (EC50, pM) [1]: 1 pM
GDF15 activity (EC50, pM) [2]: 78.9 pM

B4: MLC004 (ligand)
chain: B2 chain with C68G, Q69A, A70Q, K180R, K202R, K218R
modifications: Moiety A (HOOC-(CH2)16-CO-gGlu-2XADO) on 26K of GLP-1 (20K of fusion polypeptide)
GLP-1 activity (EC50, pM) [1]: 8.3 pM
GDF15 activity (EC50, pM) [2]: 17.3 pM

B6: MLC016 (ligand)
chain: B2 chain with K20R, C68G, Q69A, A70Q, P83K, K180R, K202R, K218R
modifications: Moiety A (HOOC-(CH2)16-CO-gGlu-2XADO) on 52K of Linker (83K of fusion polypeptide)
GLP-1 activity (EC50, pM) [1]: 2.5 pM
GDF15 activity (EC50, pM) [2]: 110 pM

B8: MLC045 (ligand)
chain: B2 chain with K20R, G32K, C68G, Q69A, A70Q, Q86K, K180R, K202R, K218R
modifications: Moiety A (HOOC-(CH2)16-CO-gGlu-2XADO) on 1K and 55K of Linker (32K and 86K of fusion polypeptide)
GLP-1 activity (EC50, pM) [1]: 1.2 pM
GDF15 activity (EC50, pM) [2]: 114 pM

B9: MLC074 (ligand)
chain: B2 chain with C68G, Q69A, A70Q, G72C
modifications: Moiety B (HOOC-(CH2)16-CO-gGlu-2XADO-EDA-CO-CH2) on 41C of Linker (72C of fusion polypeptide)
GLP-1 activity (EC50, pM) [1]: 0.94 pM
GDF15 activity (EC50, pM) [2]: 41.1 pM

B14: MLC030 (ligand)
chain: HGEGTFTSDVSSYLEEQAAREFIAWLVRGGGGQEPGQEPGQEPGQKPGQEPGQEPGQEPGQEPGAQPGAQPGAQPGAQPGAQPGAQPGAQPGAQPGAQPGAQPGAQPGAQPARQGDHCPLGPGRCCRLHTVRASLEDLGWADWVLSPREVQVTMCIGACPSQFRAANLHAQIKTSLHRLRPDTVPAPCCVPASYNPMVLIQRTDTGVSLQTYDDLLARDCHCI
modifications: Moiety A (HOOC-(CH2)16-CO-gGlu-2XADO) on 15K of Linker (46K of fusion polypeptide)
GLP-1 activity (EC50, pM) [1]: 0.9 pM
GDF15 activity (EC50, pM) [2]: 52.3 pM

B16: MLC005 (ligand)
chain: HGEGTFTSDVSSYLEEQAAREFIAWLVRGGGGQEPGQEPGQEKGQEPGQEPGQEPGQEPGQEPGAQPGAQPARQGDHCPLGPGRCCRLHTVRASLEDLGWADWVLSPREVQVTMCIGACPSQFRAANLHAQIKTSLHRLRPDTVPAPCCVPASYNPMVLIQRTDTGVSLQTYDDLLARDCHCI
modifications: Moiety A (HOOC-(CH2)16-CO-gGlu-2XADO) on 12K of Linker (43K of fusion polypeptide)
GLP-1 activity (EC50, pM) [1]: 3 pM
GDF15 activity (EC50, pM) [2]: 20.3 pM
